Data on 4 molecules can be found in patent publication US9951123B2, “Anti-LPS O11 antibody” (priority 2013, dated 2018).

Assay [1] relates to Pseudomonas aeruginosa clinical isolates No. 12 and No. 31. The assay can be described thus: Minimum inhibitory concentration of LVFX against clinical isolates. The format is cell-based.
The test system of assay [2] is Pseudomonas aeruginosa ATCC 29260. Description: Opsonophagocytic killing activity against Pseudomonas aeruginosa ATCC 29260. Type of assay: cell-based. Conditions: antibody culture supernatant samples. On the procedure: As a buffer for measurement, 0.1% gelatin/1% FBS/Hank's balanced salt solution (opsonization buffer) was prepared. HL60 as effector cells were cultured in 10% FBS-containing RPMI 1640 (Invitrogen) supplemented with 0.8% N,N-dimethylformamide for 5 or 6 days to prepare neutrophil-like, differentiated HL60 in an opsonization buffer. As the target bacteria, Pseudomonas aeruginosa ATCC 29260 cultured on MHA was prepared by suspending it in the opsonization buffer. As a complement, Baby Rabbit Serum (Cederlane) was prepared by dissolving it with ice-cold distilled water. Bacterial suspension (final concentration of 2×10^4 cells/ml) was mixed with antibody culture supernatant or purified antibody, allowed to stand at 4° C. for 30 minutes, and the prepared neutrophil-like, differentiated HL60 cells (final concentration of 4×10^6 cells/ml) and a complement (final concentration 10%) were added thereto, followed by incubation with gentle agitation at 37° C. for 1 hour under 5% CO2. After the incubation, each sample was spread on MHA, and colonies were counted on the next day.
Opsonophagocytic killing activity of each of cNo.76, c#1G5M, c#1G5, c#4C13KM, c#4C13, Meiji 1640, Meiji 1656, and 1BO11 hIgG1 against Pseudomonas aeruginosa ATCC 29260 was measured in accordance with the method of 1)-3-2. The opsonophagocytic killing activity was expressed in terms of 50% minimum growth inhibitory concentration.
In accordance with the method of 1)-3-2, the opsonophagocytic killing activities of h#1G5-H2/L2, h#1G5-H3/L3, h#4C13K-H2/L2, and h#4C13k-H3/L3 against ATCC 29260 were measured, and then compared to those of c#1G5 and c#4C13. The opsonophagocytic killing activity was expressed in terms of 50% minimum growth inhibitory concentration.

Residue numbers refer to the chain shown, from its start. Values after ≈ are worked out from the molar mass of the structure shown.

For the molecule `C[C@H]1COc2c(N3CCN(C)CC3)c(F)cc3c(=O)c(C(=O)O)cn1c23` [LVFX, levofloxacin], the minimum inhibitory concentration (MIC) in assay [1] (No. 12 strain) was above 128 µg/mL; in assay [1] (strain No. 31) it was 32 µg/mL (≈ 88.6 µM).

B1: No.76: mouse monoclonal anti-LPS O11 antibody prepared using pJON mIgG2a and pJON mIgκ; variable regions SEQ ID NO: 8 and 4 (antibody, V domains shown)
VH: MGWSCIILFLVAAATGVHSQVQLQQPGAELVKPGASVNLSCKSSGYTFTNYWINWVKQRPGQGLEWIGDIYPGTSTTNYNEKFKNKATLTVDTSSSTAYMQLSSLTSDDSAVYYCTRIYYDYDGYYFDYWGQGTTLTVSS
VL: MESQTLVFISILLWLYGADGNIVMTQSPKSMSMSVGERVTLSCKASENVGTSVSWYQEKPEQSPKLLIFGASNRYTGVPDRFTGSGSATDFTLTISSVQAEDLADYHCGQSYSYPYTFGGRTKLEIKRA
modifications: Heavy chain variable of No.76; Light chain variable of No.76
As to B1, the “opsonophagocytic killing activity in screening” value in assay [2] is recorded as “strong opsonophagocytic killing activity”.

B2: #4C12: anti-LPS O11 monoclonal antibody prepared using pJON mIgG2a-hIgG1 and pJON mIgκ; variable regions SEQ ID NO: 24 and 20 (antibody, V domains shown)
VH: MGWSCIILFLVAAATGVQSQVQLQQPGAELVKPGASVKLSCKASGYTFTTYWINWMQQRPGQGLEWIGNIYPGTRSSNYNEKFKNKATLTVDTSSSTAYMQLNSLTSDDSAVYYCTRVYYDHVGYYFDYWGQGTTLTVSS
VL: B1 VL with T51V, E58Q, F69Y, Y75C, G86R, I95V, S97N, R121G, K123R
modifications: Heavy chain variable of #4C12; Light chain variable of #4C12
Consider B2, for which the “opsonophagocytic killing activity in screening” value in assay [2] is “strong opsonophagocytic killing activity”.

B3: #1G5: anti-LPS O11 monoclonal antibody prepared using pJON mIgG2a-hIgG1 and pJON mIgκ; variable regions SEQ ID NO: 16 and 12 (antibody, V domains shown)
VH: MGWSCIILFLVAAATGVHSQVQLQQPGAELVKPGASVKLSCKASGYTFTSYWINWVKQRPGQGLEWIGNIYPGSSSINYNEKFKSKATLTVDTSSSTAYMQLSSLTSDDSAVYYCSRTIYNYGSSGYNYAMDYWGQGTSVIVSS
VL: B1 VL with A18S, T51N, E58Q, P60A, L66P, F69Y, R121G
modifications: Heavy chain variable of #1G5; Light chain variable of #1G5
For the molecule B3, the “opsonophagocytic killing activity in screening” value in assay [2] was “strong opsonophagocytic killing activity”.

The term MIC denotes the least concentration at which growth counts as inhibited. Higher therefore signals a less susceptible organism.
